# Assay results published in the supplement of paper PMC10567573.
# B1: ZNF649 (parent)
# chain: LVAHQRYHTGKTPFVCPECGQPCS
# B2: SMARCE1 (parent)
# chain: YHNSPAYLAYINAKSRAEAALEEE
# Variants of: B1
# Experiment: protein stability index of a GFP-peptide fusion (GPS, HEK-293T) (PSI 1-6); higher = more stable
# Conditions: c terminus: a fixed tail appended
# 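Also: lentivirally expressed fusions sorted by FACS into six bins by GFP to DsRed ratio, PSI derived from sequencing read proportions per bin multiplied by bin number.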
row,Variant,protein stability index
1,LVAHQRYHTGKTPFVCPECQQPCS,3.14
2,LVAHQRYHTGKTPFVCPECRQPCS,2.52
3,LVAHQRYHTGKTPFVCPECSQPCS,3.13
4,LVAHQRYHTGKTPFVCPECTQPCS,3.11
5,LVAHQRYHTGKTPFVCPECVQPCS,2.47
6,LVAHQRYHTGKTPFVCPECWQPCS,2.55
7,LVAHQRYHTGKTPFVCPECYQPCS,2.52
8,LVAHQRYHTGKTPFVCPECGAPCS,3.06
9,LVAHQRYHTGKTPFVCPECGCPCS,3.08
10,LVAHQRYHTGKTPFVCPECGDPCS,3.67
11,LVAHQRYHTGKTPFVCPECGEPCS,3.59
12,LVAHQRYHTGKTPFVCPECGFPCS,2.21
13,LVAHQRYHTGKTPFVCPECGGPCS,3.93
14,LVAHQRYHTGKTPFVCPECGHPCS,3.09
15,LVAHQRYHTGKTPFVCPECGIPCS,2.58
16,LVAHQRYHTGKTPFVCPECGKPCS,3.19
17,LVAHQRYHTGKTPFVCPECGLPCS,2.74
18,LVAHQRYHTGKTPFVCPECGMPCS,2.44
19,LVAHQRYHTGKTPFVCPECGNPCS,2.66
20,LVAHQRYHTGKTPFVCPECGPPCS,2.9
21,LVAHQRYHTGKTPFVCPECGRPCS,2.62

row,Variant,protein stability index
1,LVAHQRYHTGKTPFVCPECGSPCS,2.86
2,LVAHQRYHTGKTPFVCPECGTPCS,3.24
3,LVAHQRYHTGKTPFVCPECGVPCS,3.5
4,LVAHQRYHTGKTPFVCPECGWPCS,2.97
5,LVAHQRYHTGKTPFVCPECGYPCS,2.77
6,LVAHQRYHTGKTPFVCPECGQACS,3.58
7,LVAHQRYHTGKTPFVCPECGQCCS,3.85
8,LVAHQRYHTGKTPFVCPECGQDCS,3.69
9,LVAHQRYHTGKTPFVCPECGQECS,3.75
10,LVAHQRYHTGKTPFVCPECGQFCS,3.1
11,LVAHQRYHTGKTPFVCPECGQGCS,3.35
12,LVAHQRYHTGKTPFVCPECGQHCS,3.41
13,LVAHQRYHTGKTPFVCPECGQICS,3.25
14,LVAHQRYHTGKTPFVCPECGQKCS,3.6
15,LVAHQRYHTGKTPFVCPECGQLCS,3.13
16,LVAHQRYHTGKTPFVCPECGQMCS,2.9
17,LVAHQRYHTGKTPFVCPECGQNCS,3.77
18,LVAHQRYHTGKTPFVCPECGQQCS,4.03
19,LVAHQRYHTGKTPFVCPECGQRCS,3.28
20,LVAHQRYHTGKTPFVCPECGQSCS,3.53
21,LVAHQRYHTGKTPFVCPECGQTCS,3.33

row,Variant,protein stability index
1,LVAHQRYHTGKTPFVCPECGQVCS,3.5
2,LVAHQRYHTGKTPFVCPECGQWCS,2.38
3,LVAHQRYHTGKTPFVCPECGQYCS,3.84
4,LVAHQRYHTGKTPFVCPECGQPAS,3.27
5,LVAHQRYHTGKTPFVCPECGQPDS,3.72
6,LVAHQRYHTGKTPFVCPECGQPES,3.09
7,LVAHQRYHTGKTPFVCPECGQPFS,2.49
8,LVAHQRYHTGKTPFVCPECGQPGS,2.87
9,LVAHQRYHTGKTPFVCPECGQPHS,3.15
10,LVAHQRYHTGKTPFVCPECGQPIS,2.98
11,LVAHQRYHTGKTPFVCPECGQPKS,3.12
12,LVAHQRYHTGKTPFVCPECGQPLS,2.67
13,LVAHQRYHTGKTPFVCPECGQPMS,2.54
14,LVAHQRYHTGKTPFVCPECGQPNS,3.06
15,LVAHQRYHTGKTPFVCPECGQPPS,3.47
16,LVAHQRYHTGKTPFVCPECGQPQS,2.73
17,LVAHQRYHTGKTPFVCPECGQPRS,3.19
18,LVAHQRYHTGKTPFVCPECGQPSS,2.56
19,LVAHQRYHTGKTPFVCPECGQPTS,3.35
20,LVAHQRYHTGKTPFVCPECGQPVS,2.99
21,LVAHQRYHTGKTPFVCPECGQPWS,2.42

row,Variant,protein stability index
1,LVAHQRYHTGKTPFVCPECGQPYS,2.31
2,LVAHQRYHTGKTPFVCPECGQPCA,2.94
3,LVAHQRYHTGKTPFVCPECGQPCC,3.13
4,LVAHQRYHTGKTPFVCPECGQPCD,3.76
5,LVAHQRYHTGKTPFVCPECGQPCE,3.36
6,LVAHQRYHTGKTPFVCPECGQPCF,3.71
7,LVAHQRYHTGKTPFVCPECGQPCG,3.54
8,LVAHQRYHTGKTPFVCPECGQPCH,3.23
9,LVAHQRYHTGKTPFVCPECGQPCI,2.77
10,LVAHQRYHTGKTPFVCPECGQPCK,3.23
11,LVAHQRYHTGKTPFVCPECGQPCL,2.82
12,LVAHQRYHTGKTPFVCPECGQPCM,2.67
13,LVAHQRYHTGKTPFVCPECGQPCN,2.97
14,LVAHQRYHTGKTPFVCPECGQPCP,3.57
15,LVAHQRYHTGKTPFVCPECGQPCQ,3.12
16,LVAHQRYHTGKTPFVCPECGQPCR,2.68
17,LVAHQRYHTGKTPFVCPECGQPCT,3.36
18,LVAHQRYHTGKTPFVCPECGQPCV,3.13
19,LVAHQRYHTGKTPFVCPECGQPCW,3.08
20,LVAHQRYHTGKTPFVCPECGQPCY,2.62

# Variants of: B2
# Experiment: as above
# Conditions: c terminus: a fixed tail appended
row,Variant,protein stability index
1,AHNSPAYLAYINAKSRAEAALEEE,5.18
2,CHNSPAYLAYINAKSRAEAALEEE,4.74
3,DHNSPAYLAYINAKSRAEAALEEE,5.28
4,EHNSPAYLAYINAKSRAEAALEEE,5.26
5,FHNSPAYLAYINAKSRAEAALEEE,2.02
6,GHNSPAYLAYINAKSRAEAALEEE,4.65
7,HHNSPAYLAYINAKSRAEAALEEE,4.6
8,IHNSPAYLAYINAKSRAEAALEEE,4.78
9,KHNSPAYLAYINAKSRAEAALEEE,4.96
10,LHNSPAYLAYINAKSRAEAALEEE,4.97
11,MHNSPAYLAYINAKSRAEAALEEE,5.08
